Measured values reported in article PMC2783993 (Biotechnology progress, 2009).

Molecular target: the molecule itself
Assay: LC-MS

B1: bovine hemoglobin β globin chain (natural protein)
chain: not shown
stoichiometry N: 2
